Test results: US20230227577A1 (MYTHIC THERAPEUTICS, published 2023)

Columns and labels:
[1] = biological target: T1, recombinant human DLL3 protein (human, UniProt Q9NYJ7 27-492, limits assumed); test: SPR, control: individual binding construct
T1 construct: also called rhu DLL3; human biotinylated DLL3
T1 sequence (looked up): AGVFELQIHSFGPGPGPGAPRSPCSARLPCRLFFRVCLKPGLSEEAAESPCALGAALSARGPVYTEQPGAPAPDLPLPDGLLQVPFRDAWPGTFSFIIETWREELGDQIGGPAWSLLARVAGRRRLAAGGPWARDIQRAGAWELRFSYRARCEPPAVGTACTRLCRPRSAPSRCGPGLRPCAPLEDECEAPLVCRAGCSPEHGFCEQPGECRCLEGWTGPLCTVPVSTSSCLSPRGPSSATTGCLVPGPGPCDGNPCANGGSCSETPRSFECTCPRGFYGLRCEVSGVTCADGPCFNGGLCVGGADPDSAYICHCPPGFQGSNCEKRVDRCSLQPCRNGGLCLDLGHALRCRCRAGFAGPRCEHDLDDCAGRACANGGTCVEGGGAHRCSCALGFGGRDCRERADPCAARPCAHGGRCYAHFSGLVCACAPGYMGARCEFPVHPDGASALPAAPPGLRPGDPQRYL
Experimental: Surface Plasmon Resonance (SPR) was used to assess the binding kinetics and binding affinity. Kinetic rate coefficients were recovered from binding analysis experiments performed with a Biacore 3000 biosensor. Concentrations of the anti-DLL3/anti-CD3/anti-HSA trispecific binding construct ranging from 1.23 nM to 300 nM were run against the SPR sensorgram surfaces immobilized with recombinant human CD3 (rhu CD3) or recombinant HSA (rHSA). Concentrations of recombinant human DLL3 (rhu DLL3) ranging from 1.23 nM to 100 nM were run against the SPR sensorgram surface immobilized with the anti-DLL3/anti-CD3/anti-HSA trispecific binding construct. The association and dissociation phase data were globally fit to a 1:1 model to determine the association rate coefficient (kₒₙ), dissociation rate coefficient (koff), the Rmax value, and the dissociation constant (KD). Results were reported as the global fits to 1:1 model±standard error. The control groups were the three corresponding individual binding constructs. All three antigen binding domains in the trispecific binding construct retain binding to the corresponding antigen.

[2] = biological target: T2, DLL3 target antigen coated on Octet SA tips (binning experiment) (Homo sapiens (Human), UniProt Q9NYJ7 27-492, Probably biotinylated for capture on streptavidin (SA) tips. The site is not stated.); test: Octet binning on DLL3-coated SA tips; competitor: DLL3 BiTEs
T2 sequence: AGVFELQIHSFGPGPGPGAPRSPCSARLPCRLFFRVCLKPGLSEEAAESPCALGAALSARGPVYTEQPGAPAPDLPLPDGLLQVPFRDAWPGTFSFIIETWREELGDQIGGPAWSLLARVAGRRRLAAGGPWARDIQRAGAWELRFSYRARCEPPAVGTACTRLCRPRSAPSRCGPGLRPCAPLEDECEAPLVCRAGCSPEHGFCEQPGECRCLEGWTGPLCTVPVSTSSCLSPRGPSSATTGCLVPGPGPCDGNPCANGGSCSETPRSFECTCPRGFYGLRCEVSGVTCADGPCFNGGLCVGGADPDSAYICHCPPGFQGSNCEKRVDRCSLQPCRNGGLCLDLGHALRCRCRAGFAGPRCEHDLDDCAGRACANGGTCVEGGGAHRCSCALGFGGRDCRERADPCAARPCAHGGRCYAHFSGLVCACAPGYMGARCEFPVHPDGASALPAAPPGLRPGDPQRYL
Experimental: (§1) Antibody binning experiments were carried out for 5 anti-DLL3 VHHs and an anti-human DLL3 BiTE (SEQ ID NO: 756). The target antigen was coated on a series of Octet SA tips. Each series of tips was first soaked in a periplasmic extract containing one specific VHH. After the response signals reached saturation, the tips were transferred to a mix of PEs containing again the first VHH (at the same concentration) plus a different VHH (termed secondary VHH) for each tip of the series. Secondary VHH that still bind the target antigen in the presence of the first VHH will show an increased response, as compared to the binding response of the first VHH alone. This was repeated for each VHH as primary VHH until all VHH were tested against each other in both directions (as primary and as secondary binder). From the response data, the bins were deduced for each VHH. 2HCE117 and 3HCE4 show competition with the human DLL3 BiTEs, whereas 3HCE56 and 3HCE87 show a partial competition.

mouse DLL3 protein = biological target: T3, mouse DLL3 protein (mouse, UniProt O88516 33-490, limits assumed); test: Octet (DLL3 on AR2G tips), ELISA and FACS; values only in FIG. 3
T3 construct: also called murine DLL3
T3 sequence (looked up): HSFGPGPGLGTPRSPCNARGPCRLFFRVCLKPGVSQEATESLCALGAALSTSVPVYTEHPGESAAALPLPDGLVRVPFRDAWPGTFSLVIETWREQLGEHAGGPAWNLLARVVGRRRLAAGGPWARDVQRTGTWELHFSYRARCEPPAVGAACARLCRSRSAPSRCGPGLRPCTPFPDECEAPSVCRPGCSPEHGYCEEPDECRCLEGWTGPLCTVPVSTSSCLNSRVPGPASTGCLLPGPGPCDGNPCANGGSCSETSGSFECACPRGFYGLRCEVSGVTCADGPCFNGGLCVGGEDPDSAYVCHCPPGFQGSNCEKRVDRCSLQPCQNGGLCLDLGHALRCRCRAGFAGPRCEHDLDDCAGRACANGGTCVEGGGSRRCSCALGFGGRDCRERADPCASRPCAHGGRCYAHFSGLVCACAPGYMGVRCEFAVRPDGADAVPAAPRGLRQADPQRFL

[3] = biological target: T2, DLL3 target antigen coated on Octet SA …; test: Octet binning on DLL3-coated SA tips; competitor: 3HCE56
Experimental: as §1

[4] = biological target: T1, recombinant human DLL3 protein; test: Fortebio Octet Red, DLL3 immobilised on tips, dilution series of the VHH, 1:1 binding model; koff error 6.05E-07; Full R2 0.9994
Experimental: (§2) Additional experiments were carried out to further characterize the binding properties of the anti-DLL3 constructs. Binding properties tested include dissociation constant (KD), off-rate (koff), binding to DLL3 protein by ELISA and binding to CHO cells expressing human, cyno or mouse DLL3. To obtain off-rate (koff), human biotinylated DLL3 was immobilized on Octet SA tips, and cynomolgus or mouse DLL3 was immobilized on Octet AR2G tips. For each DLL3 protein, the binding to a dilution series of each anti-DLL3 construct was measured using Fortebio Octet Red. The dissociation constant (KD), off-rate (koff) and other kinetic parameters for each anti-DLL3 construct were calculated using a 1:1 binding model. In addition, binding of these anti-DLL3 constructs to CHO cells expressing human, cyno or mouse DLL3 protein was analyzed using flow cytometry (FACS).

DLL3 (ELISA DLL3) = biological target: T4, DLL3 (ELISA DLL3); test: ELISA, ratio of the signal on DLL3 to the signal on the control
T4 construct: also called DLL3 protein in ELISA
T4 chain: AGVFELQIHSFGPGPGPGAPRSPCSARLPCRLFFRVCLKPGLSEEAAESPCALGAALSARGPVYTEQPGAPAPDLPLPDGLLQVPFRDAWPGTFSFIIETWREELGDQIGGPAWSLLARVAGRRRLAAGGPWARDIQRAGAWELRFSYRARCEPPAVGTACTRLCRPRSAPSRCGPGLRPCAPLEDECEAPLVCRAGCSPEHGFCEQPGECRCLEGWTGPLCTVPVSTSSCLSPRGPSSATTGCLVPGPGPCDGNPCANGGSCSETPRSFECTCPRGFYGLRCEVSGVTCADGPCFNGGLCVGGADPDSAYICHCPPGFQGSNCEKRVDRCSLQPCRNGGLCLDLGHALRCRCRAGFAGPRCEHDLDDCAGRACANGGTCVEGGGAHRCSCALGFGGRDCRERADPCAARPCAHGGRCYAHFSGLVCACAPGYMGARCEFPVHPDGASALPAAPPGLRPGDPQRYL

[5] = biological target: T1, recombinant human DLL3 protein; test: Fortebio Octet Red, DLL3 immobilised on tips, dilution series of the VHH, 1:1 binding model; kon error 1.20E+02; Full R2 0.9994
Experimental: as §2

[6] = biological target: T2, DLL3 target antigen coated on Octet SA …; test: Octet binning on DLL3-coated SA tips; competitor: 3HCE87
Experimental: as §1

B1: 2HCE27 anti-DLL3 VHH (VHH)
VHH: QVQLQESGGGLVQAGGSLRLSCAASGRTFRSYAMGWFRQAPGKEREFIAVIIMSDGSTSYADSVKGRFTISRDNAKNTLYLQMNSLKPEDTAVYYCAARRDYFTGVYDYWGQGTQVTVSS
notes: In the binning assay it was used as a periplasmic extract; also called anti-DLL3 (2HCE27)
Kd [1]: 7.89 nM
koff [1]: 0.00064 s⁻¹
kon [1]: 80000 M⁻¹ s⁻¹
binning response (unit not given) [2]: 83.4
binding result (mouse DLL3 protein): binds
binning response (unit not given) [3]: 6500
koff [4]: 0.000638 s⁻¹
DLL3 / control (DLL3 (ELISA DLL3)): 33.3
kon [5]: 80900 M⁻¹ s⁻¹
binning response (unit not given) [6]: 87.5
